The results in this text go back to paper PMC8185068, “Intracellular artificial supramolecules based on de novo designed Y15 peptides” (Nature Communications, 2021).

This series deals with the molecule itself. Put plainly: thioflavin T fluorescence; synthetic peptides 5-50 µM in PBS, incubated 24 h at 37 °C, then 25 µM thioflavin T; fluorescence spectra.

B1: Y15 peptide (peptide)
peptide: YEYKYEYKYEYKYEY
notes: de novo designed self-assembling peptide Y15; source: synthetic peptide (Fmoc solid-phase synthesis, RP-HPLC)
For B1, the binding result is reported as “binds”.
